We go through 24 sequences from the DeepSol protein solubility set.

The nature of the data set: soluble on expression in E. coli; label from the status in PepcDB or PDB records.
As to “MRYIRLCIISLLATLPLAVHASPQPLEQIKLSESQLSGRVGMIEMDLASGRTLTAWRADERFPMMSTFKVVLCGAVLARVDAGDEQLERKIHYRQQDLVDYSPVSEKHLADGMTVGELCAAAITMSDNSAANLLLATVGGPAGLTAFLRQIGDNVTRLDRWETELNEALPGDARDTTTPASMAATLRKLLTSQRLSARSQRQLLQWMVDDRVAGPLIRSVLPAGWFIADKTGAGERGARGIVALLGPNNKAERIVVIYLRDTPASMAERNQQIAGIGAALIEHWQR”, the “soluble on expression in E. coli” value is reported as “soluble”. For “KGTYLSEYANFAAALTEGKILLLADLRGFGETTDPAFYTDAKYWNREYRNAMVSMHIGRPIMGQRVVDILTLLDFCSEHEFLKGHPVKVFANGIYGPVAIHAAYLDERINSVEIKHSVKTWKEYIERPMQWDMYSNVLYGALKYYDLPDLIRLSNCPIRFAD”, the “soluble on expression in E. coli” value is “not soluble”.

With “MSLDLKITNGFYDPSHLSYEVVERKGLGHPDTLADGIAEQIEIDYSLYCLDKFGVIPHHNFDKIIIRGGHSVQDFGGSDFIEPIKIIFLGRASKKCFNSSIPLFKIQKKAATKYLNRILPNLDVENYVEFETLTSDFTTKTNWFSPEAIEDLPEYLDVPKANDTATMISYWPLTISEELALMIEGYFYKLDKNELPTPRFTKMGGDIKVMVVRNDLEYSIRINFPLISKFFNNDIESQLYVDKHVEKIKKYIEQKYKNISFSIDYHYYLTTTGSCIDFGEEGAVGRGNKTHGIISSFRPNTMEAPAGKNCTYFVGKVWGFLSDTIAKEIYEAFNTPCQIIMQLNIGSKLYRPTHLFIQTEESVDQERVLEIVNRHLNNGKQNTNLILSTQHFIPKTNVYDGEGHHHHHH”, the “soluble on expression in E. coli” value is “soluble”.

As to “NKGKDITSWVNKALDAIAALFSAKTWKRKPKMKVHYGNNTRQNDYDYNARKKAQSDEIDRILDKLKKSGYESLTTEEKKSLFDASKR”, the “soluble on expression in E. coli” value was “not soluble”. For the sequence “MCIAIPGKMTAIVDENTATIDMGGICRDVNMALMGGAEESMIGKHFLVHVGYAISEISEEESEETMRLLKIMAGLEEIDSFE”, the “soluble on expression in E. coli” value was “soluble”. Regarding “MFEHLCNIDDMTIIGQRSNPLNEDWNEWTLVICTKCKKVYEWQHHSEEQMHGGDLAITAIATDDYLHHKYNINEQDIPQILNKKKKIRRYDRYKKIYLEDYV”, the “soluble on expression in E. coli” value is listed as “not soluble”. In the case of “MVKEGWMVHYTSRDNLRKRHYWRLDSKCLTLFQNESGSKYYKEIPLSEILRISSPRDFTNISQGSNPHCFEIITDTMVYFVGENNGDSSHNPVLAATGVGLDVAQSWEKAIRQALM” it was “soluble”. With “MTVRVGDPELVLDPYDYDFHEDPYPYYRRLRDEAPLYRNEERNFWAVSRHHDVLQGFRDSTALSNAYGVSLDPSSRTSEAYRVMSMLAMDDPAHLRMRTLVSKGFTPRRIRELEPQVLELARIHLDSALQTESFDFVAEFAGKLPMDVISELIGVPDTDRARIRALADAVLHREDGVADVPPPAMAASIELMRYYADLIAEFRRRPANNLTSALLAAELDGDRLSDQEIMAFLFLMVIAGNETTTKLLANAVYWAAHHPGQLARVFADHSRIPMWVEETLRYDTSSQILARTVAHDLTLYDTTIPEGEVLLLLPGSANRDDRVFDDPDDYRIGREIGCKLVSFGSGAHFCLGAHLARMEARVALGALLRRIRNYEVDDDNVVRVHSSNVRGFAHLPISVQAR” the entry was “not soluble”; with “MSYVIDRRLNGKNKSTVNRQRFLRRYRDHIKKAVEEAVSRRSITDMEHGEQISIPGRDIDEPVLHHGRGGKQTVVHPGNKEFTTGEHIARPQGGAGGKGPGKAGNSGEGMDEFSFQITQEEFLEFMFEDLELPNLVKRNLTGTDTFKTVRAGISNEGNPSRINIIRTLRSAHARRIALSGSSRAKLREATSELERIKREEPDNFGDIQALEVEIDRLKARIRRVPYLDTFDLKYNLLVKQPNPSSKAVMFCLMDVSGSMTQATKDIAKRFFILLYLFLKRNYDKIDVVFIRHHTSAREVDEEEFFYSRETGGTIVSSALKLMQEIMAARYPSSDWNIYAAQASDGDNWNDDSPICREILTKQIMPFVQYYTYVEITPREHQALWYEYERIGDDFADTFAQQQLVSAGDIYPVFRELFQRRLVSAAALEHHHHHH”, “not soluble”; with “MSLGKIRFGIVGTSNIANIFLRAASRVKDFELVAVYSRNLEKAREFGTLYGASIFFDDLEQMAKSKDIDAVYIASPNALHSKQTITCLKHKKHVLCEKSLASNLKEVKSMIKTAKDNNVLLMEAMRITCVPNFKAVKENLYKIGKIRRFFGSYCQYSSRYDKYKNGIIENAFKKELSNGALMDIGVYCIHPMVNLFGAPKTVKAVSHILQTGVDGEGSAVFQYDDMDAIIQYSKVADSYIPSEIQGEEGSIIIEKLNLFEKAIIKYRDGREEDISIPKEKAEEKPREIEGMYYELVEFISLINNNKIESNINSHENSIIVMEIMDEIRRQSSIVYPADSEGHHHHHH”, “soluble”.

As for “MIEIAKIGDDFDRWQDLLALIMTSFAYMDGVIDPPSSAYRLTLENLAEKARAEIAFVALDSDELLGCLFCRPEPPASLYVGKLCVSPKAQGKGIGKLLLLQAEALARELALPALRLETRIELLSNHTKFAAWGFVKTAENAHAGYDRTTSIEMTKFLG”, the “soluble on expression in E. coli” value is “not soluble”. As for “SEKADEKTYDLRDPSQLVALFTENENEDFIKISLSKYIESLIQSHNMASYNIVFLYDETRSISRYHSNQIYEAASSATDKKDILLILHSGGGQIEPAYLISKTCKSLTKKKFVVGIPRRAKSAATLISLGADEIHMGLMSELGPIDPQIGGYPALGLSNALNTLAGLACRFPDSADMFAKYLTDNLNLKDLGYFERVSESASQYAERLLAGKKFPAPSTAQSLANHFVNHYKDHGFVIDSDEATNLLGSNIIKQNTAEYLFANELYKFLDFASF”, the “soluble on expression in E. coli” value was “not soluble”.

For “MTLGTALKQARKAQQLNQKQAARGICAQSMLSAIENDRYVPNARLLLALCQRLGVAVSTLSLADDFEISAEQAFNDRVRQMCNAHQYQQLKDWLLQPTTLEHVQTDEQTQAYYYYLGVACWQVDRTSDAAQQNLRLAIGMAAPSSPPTTLTRLALISLAVVKAHHHPQAPVAALVTRALADIDAGAYEENANIVFYLAGLVAYEQHDSQLAVARLTQGLAFATTHDSHYMLANIYQLMAQLAMAAGETATAQVASQRSQVFKDLFKEQINDRL”, the “soluble on expression in E. coli” value was “not soluble”. As to “MAHHHHHHMNLDEFNELVEQRNRIEREIQENVNFLEAPENKGVGLHGKLVDEEGFPRNDIDIYSIRVARNKVICLKNDYLNVSKRIEEYLHKVHTSHPVIRVQRSKAKKEEGDDPNESPPESCTQDYDESAPGYELLIEEAKRSTFAMIDELVENSPSHKAGLRINDYIIQFGDVQKKKKKNEENEKEDADIFNRIAAYMRNNPTRIKVKILREGKIFFYFVFPNRTPNGLYIGCHLTPISVGGGSV”, the “soluble on expression in E. coli” value is “not soluble”. With “KRSKVLSQASKNAEQFEDKFWSGTDLSQLYQKVKGRKDEIAGTEEIFFAGFTEFARLRKSNANSPAYIMEGTGRAMRVAVAREVDELETS” the entry was “not soluble”; with “MAHHHHHHMDAKLEARMASVWEVVSSRHAVEATDLSLIQNVTRALAAMHERVEQQHAELTRWHRQNYKLMCTMVVHVNWREEDHRQLRDELVNVRQQLGRVAVRGDVPLLRPRNGG”, “not soluble”. In the case of “MGSDKIHHHHHHMFTRRFIPVVQSTKQNIGKYVRKDARFTLLTYNMLSPSYMWPQVYTYVAEPYKNWSYRHRLLEKELLNTFKADIMCLQEMTARDYEDYWHDSIGVDVNYGSKFISKTPPKYWKKPVKDMDGVSIFYNLAKFDFISSSGIYLNQLLNVFNQRELKYLYNKKVTLTDGASNVIGEDSLLDVLKGKNQVCLFVSLRHKETGTIFVVLNTHLYWKYDEVKLTQCMIIMRELSKIIKQLLPGDVKGQERVKILFTGDLNSTRDSLVVNFLQGQIVSHGDLNLINPMRPYLDRCVYDDIPKDYFVHTCYSGKLKGIFDYVWYHDSDFLLTKILTGNEVSDELLASNQLGLPNENHPSDHIPLLTEFKIL” it was “not soluble”. Regarding “GPGSMSTQLISGGEDGSHSQLMDLVLTNCSRPQSRASDNKQSTDGVVRLTSYVDLPNRDTLLPPIAEPKGGVPETSETLFPRRLGFDMIGVSSVSEEMLRDLYEVFDVHQSGGVERGVLREMMRSGFSHFGAPCSDRDLDRFFENVTPFRVRRRRTPKEGEVDVVPFNEFCVAFLSWLRR”, the “soluble on expression in E. coli” value is “soluble”. In the case of “MGSDKIHHHHHHMRVILAQPRGFCAGVVRAIEIVDRALQQHGAPVYVRHEIVHNRHVVDNLRQKGARFVEELDEVPQGAVAIFSAHGVAQTVERDAEARGLDVLDATCPLVTKVHVQGRQYVGAGRTLILIGHAGHPEVEGTVGQIPGKVLLVQSEAEVENLDLPLDTPLAYVTQTTLSVDDTRGIIDALLSRFTDIVGPDTRDICYATQNRQAAVRELSKQVDVLLVVGATNSSNSNRLREIGSESGVASYLVADGSEVKPEWFANVQTVGITAGASAPEEMVKNVIDALSALGPVDVTTMAGREEKVEFKLPSKLMQPLAAREV” it was “not soluble”; in that of “MSLSNSPLPPNATPMERALAAVTERLEAIPLPYPDLWNPDTCPAGHLPWLAWTLSVDDWKADWSDAVKRSRLRSAMAIQRRKGTANSVRMVVASFGGAVTIREWWQQQPRGQPHTFELTLTLNGSDGRAASARFVDEVIAEVERTKPVRSHFGFVQGLQATGNVSLVTGVRIINYRRLSMMAQGEGHHHHHH”, “not soluble”. Regarding “MGSDKIHHHHHHMKKSERLNQELFFLRTHPQFNLNQLMKTFGISKSTALRDIEALENLGVPLYVENGRYGGYRVLNKPLLPPIYFNENEVLAIFFSLQLLKLVAESPFGHSYQQIKQKLLHSLDEPTQFKISQMSKVVYYEGIEQVEAPGNLEQLFHCILAQQVIQFNYTRYEATTKKILPTRLTILEGYWYCSGYDVTKKAWRTYRCDFMEAIQQLNQTLDFTTEELKESYRHQQTTARTIPFKAIITEKGKEFFYKHRFDNIQLEETPTQCFLVGQIHPTETQFLANYFMGFGEEVTILDPVQVKQAYVESIMRIQKKYQE”, the “soluble on expression in E. coli” value is reported as “not soluble”. In the case of “MIIIQLNERQLKIIDIVKENEPITSESIASSLNVTRATLRSDLAILTMTGILDARPKVGYFYSGVSEINLIGKSVKEKTVEDIMSMPVLAKKDESIYDVIVTMFLSDVGSIVIIDENEELCGVVSRKDLLKATIGGSDINKMPIGMIMTRTPNVVTLTKGASVLLASRKIIEHEVDSIPIVEYKGEDKNHMRVVGRISKTNITKLFLEIVDN” it was “not soluble”; in that of “MATGGLAIIQSMKHKLPPSERKLADYILAHPHKAIESTVNEISALANSSDAAVIRLCKSLGLKGFQDLKMRVAGDLAKPTFQGYRDIVPHEPLPSISEKTAGNAIQAI”, “soluble”; in that of “MGSDKIHHHHHHMSTELNTMALSVPQGAGLDGYIQSVNRIPMLTAEKEKALATRLYENSDLDAAKELIMSHLRFVVHVARSYSGYGLPQADLIQEGNIGLMKAVKRFDPSVGVRLVSFAVHWIKAEIHEYVLRNWRVVKVATTKAQRKLFFNLRKMKKRLGWFSQKEVETVANELGVSTKEVLEMETRMSAHDQAFELSSDDDDSKEGSAYSPAMYLEDKRSDLAAEIEAKDYENHTQQKLLGAMSHLDERSQDIVQSRWLSEDKTTLHDLAEKYEVSAERVRQLEQNAMKKLRLAMS”, “not soluble”.
